From patent US12331110B2, “Monoclonal antibodies against endotrophin and the use thereof” (THE BOARD OF REGENTS OF THE UNIVERSITY OF TEXAS SYSTEM, priority 2018, dated 2025)

Tests used:
MDA-MB-231 cells = assay: MDA-MB-231 tumor growth in nude mice; type: in vivo
Method: FIGS. 6A-D. The antibody effects on MDA-MB-231 cells in vivo. (FIG. 6A) MDA-MB-231 cells (2×10^6 cells) were implanted into nude mice. Then 2.5 mg/kg of cisplatin and 20 mg/kg of ETPmAb4 antibody (twice a week) were injected after 10-days implantation for 5-weeks. Tumor volume was determined by caliper measurement. The insert reflects a simplified analysis of control antibody versus ETPmAb4 with associated statistics. (FIG. 6B) MDA-MB-231 cells (2×10^6 cells) were implanted into nude mice. Treatment was started when the tumor volume was over 30 mm^3. At that point, 2.5 mg/kg of cisplatin and 20 mg/kg of ETPmAb4 antibody (twice weekly) were injected for 5-weeks. Tumor volumes were determined by caliper measurements. The insert reflects a simplified analysis of control antibody versus ETPmAb4 with associated statistics. (FIG. 6C) SKOV3 cells (2×10^6 cells) were implanted into nude mice. Then 2.5 mg/kg of cisplatin and 20 mg/kg of ETPmAb4 antibody (twice weekly) were injected 10-days after implantation for 5-weeks. Tumor volumes were determined by caliper measurements. The insert reflects a simplified analysis of control antibody versus ETPmAb4 with associated statistics. (FIG. 6D) MDA-MB-231 cells (2×10^6 cells) were implanted into nude mice. Then 2.5 mg/kg of cisplatin, 20 mg/kg of ETPmAb4 antibody and 20 mg/kg of humanized ETPmAb4 antibody (twice a week) were injected after 10-days implantation for 5-weeks. Tumor volume was determined by caliper measurement. […]
Animal experiments. […] Tumors were measured twice a week, beginning 10 days after injection, and tumor volume was calculated by length×(width) 2/2 (mm^3).
Analysis of Tumor Progression. Tumor onset was monitored twice weekly by palpation. Tumor sizes were measured using a digital caliper twice weekly and the volumes were calculated as length× width2)/2. […] Animals were sacrificed when the tumor burden visibly affected the host, or when the tumors reached the IACUC pre-determined limit of 20 mm along one axis. […]
After humanization, the binding affinity of hETPmAb4 to endotrophin was measured in Octet RED96. […]

[1] = test system: ETP transfected MCF7 cells; assay: ETP transfected MCF7 tumor growth in nude mice; type: in vivo
Method: FIGS. 5A-C. Antibody effects on ETP-MCF7 cells in vivo. (FIG. 5A) ETP transfected MCF7 cells (2×10^6 cells) were implanted into nude mice. An estradiol pellet (0.72 mg) was implanted into nude mice. Then (i) 20 mg/kg ETPmAb4, (ii) 10 mg/kg ETPmAb4 with 10 mg/kg control IgG, (iii) 5 mg/kg ETPmAb4 with 15 mg/kg control IgG, (iv) 2 mg/kg ETPmAb4 with 18 mg/kg control IgG, and (v) 20 mg/kg control IgG (twice a week) were injected after 10-days implantation for 5-weeks. Tumor volume was determined by caliper measurement. Data was represented as mean±SD (n=5/group), and *** p<0.0001 by ANOVA followed by Newman-Keuls multiple comparison test. (FIG. 5B) Total RNA was prepared from tumor tissues from ETP transfected MCF7, ETPmAb4 treatment mice. The EMT markers genes Twist, Snail, Cdh2 and Cdh 1 were determined by qRT-PCR, then normalized to GAPDH. E-CAD immunofluorescence staining for tumor tissues from ETP transfected MCF7 and ETPmAb4 treatment tumor. (FIG. 5C) MCF7 and ETP transfected MCF7 cells (2×10^6 cells) were implanted into nude mice. An estradiol pellet (0.72 mg) was implanted into nude mice. Then 20 mg/kg of antibody ETPmAb4 (twice a week), and 2.5 mg/kg of cisplatin (once a week) were injected after 10-days implantation for 6-weeks. Tumor volume was determined by caliper measurement. Data was represented as mean±SD (n=5/group), and *** p<0.0001 by ANOVA followed by Newman-Keuls multiple comparison test.
Animal experiments. NU/NU nude female mice were purchased from Charles River (Crl: NU-Foxnlnu; Strain Code 088 (Homozygous)). Breast cancer cells (2×10^6 cells) were implanted by intraductal injection. All cell lines were mixed on ice with 1×PBS and Matrigel. Then 100 μL of mixture was injected into mice. Tumors were measured twice a week, beginning 10 days after injection, and tumor volume was calculated by length×(width) 2/2 (mm^3).
Analysis of Tumor Progression. Tumor onset was monitored twice weekly by palpation. Tumor sizes were measured using a digital caliper twice weekly and the volumes were calculated as length× width2)/2. Inguinal tumors were weighted to determine tumor burden. Animals were sacrificed when the tumor burden visibly affected the host, or when the tumors reached the IACUC pre-determined limit of 20 mm along one axis.
As a next step, whether the anti-endotrophin antibodies effectively curb the aggressive tumor growth observed in endotrophin overexpressing MCF-7 cells was examined. To boost the growth rate of the tumor cells, these assays were performed in the presence of estradiol pellets. Cells (2×10^6 cells) were injected into nude mice and their tumor growth was monitored over time, based on a twice weekly injection of either a control monoclonal preparation, or ETPmAb4; in all cases, a total of 20 mg/kg of antibody was used. The dose dependence was tested by either injecting 20 mg/kg of control antibody, 20 mg/kg of ETPmAb4, or a mixture of the two with decreasing levels of control antibody mixed with increasing levels of ETPmAb4.
To test this, MCF7 cells were used with or without endotrophin overexpression, and the cells were transplanted into nude mice, in the presence of estradiol pellets (FIG. 5C). […] As expected, MCF7 cells harboring an excess in endotrophin grew very aggressively (FIG. 5C; red line).

B1: ETP-mAb4: rabbit monoclonal anti-human endotrophin antibody selected for further study; VH SEQ ID NO: 125, VL SEQ ID NO: 126 (antibody, V domains shown)
VH: SSRVKESGGDLVKPGASLTLTCKASGFSFSSGYYICWVRQAPGKGLEWIACIYGGNNNPYYANWVNGRFTTSKTSSTTVTLQMTNLTGADTATYFCARKDINIGGAYELWGPGTLVTISS
VL: ELVMTQTPASVSEPVGGTVTINCQASQSISSSYLSWYQQKPGQPPKLLIYKASTLASGVPSRFKGSGSGTQFSLTISDLECADAATYYCQYSDWANSYGNAFGGGTEVVVK
- lesion growth, combination with cisplatinum (MDA-MB-231 cells; 20 mg/kg antibody plus 2.5 mg/kg cisplatin): essentially inhibited lesion growth
- rate of tumor growth, antibody alone (MDA-MB-231 cells; 20 mg/kg twice a week): significantly reduced the rate of tumor growth
- lesion growth, combination with cisplatinum ([1]; 20 mg/kg ETPmAb4 twice a week plus 2.5 mg/kg cisplatin once a week): lesion growth was reduced down to essentially baseline
- tumor growth at the highest dose ([1]; 20 mg/kg twice a week, estradiol pellet): almost completely curbing the aggressive tumor growth
- rate of tumor growth ([1]; 2-20 mg/kg twice a week, estradiol pellet, vs control IgG): significantly reduced in a dose-dependent fashion the rate of tumor growth over time
- EMT signature in tumor tissue (Twist, Snail, Cdh2, Cdh1 qPCR) ([1]; antibody-treated tumors): reduced EMT signature
